From patent US20030219848A1 (DISCOVERX, published 2003)

Molecular target: enzyme acceptor (EA) fragment of β-galactosidase (UniProt P00722 2-1024 = β-galactosidase, limits assumed)
Experiment: cell-based or functional assay

Chain of enzyme acceptor (EA) fragment of β-galactosidase (P00722 other isoform, or with tags, fused parts or gaps limits assumed): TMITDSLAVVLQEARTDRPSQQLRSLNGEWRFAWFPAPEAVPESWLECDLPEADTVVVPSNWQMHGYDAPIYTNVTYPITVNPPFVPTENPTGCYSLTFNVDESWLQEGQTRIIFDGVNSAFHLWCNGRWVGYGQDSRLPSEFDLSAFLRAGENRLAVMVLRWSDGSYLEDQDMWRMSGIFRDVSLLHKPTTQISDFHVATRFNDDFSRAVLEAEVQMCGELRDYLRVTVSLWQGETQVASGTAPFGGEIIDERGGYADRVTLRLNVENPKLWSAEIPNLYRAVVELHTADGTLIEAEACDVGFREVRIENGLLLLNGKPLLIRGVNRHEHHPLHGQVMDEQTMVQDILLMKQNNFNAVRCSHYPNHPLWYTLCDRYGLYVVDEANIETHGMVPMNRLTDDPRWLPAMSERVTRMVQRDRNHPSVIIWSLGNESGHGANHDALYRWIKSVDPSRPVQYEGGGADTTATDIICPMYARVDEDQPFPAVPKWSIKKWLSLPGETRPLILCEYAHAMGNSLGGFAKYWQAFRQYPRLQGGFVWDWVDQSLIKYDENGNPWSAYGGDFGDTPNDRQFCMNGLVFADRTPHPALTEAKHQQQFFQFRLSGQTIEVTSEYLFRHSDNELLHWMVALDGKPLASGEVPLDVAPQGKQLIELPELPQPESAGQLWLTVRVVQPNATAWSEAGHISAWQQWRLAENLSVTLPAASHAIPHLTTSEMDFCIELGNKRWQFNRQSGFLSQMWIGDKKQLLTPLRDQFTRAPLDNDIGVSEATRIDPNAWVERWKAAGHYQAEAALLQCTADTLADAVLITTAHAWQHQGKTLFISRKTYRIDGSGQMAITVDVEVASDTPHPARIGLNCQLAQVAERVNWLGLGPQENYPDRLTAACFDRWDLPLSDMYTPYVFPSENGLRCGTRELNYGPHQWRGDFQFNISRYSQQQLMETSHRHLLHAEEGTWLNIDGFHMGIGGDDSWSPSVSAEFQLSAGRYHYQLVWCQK

B1: 37 mer ED (SEQ ID NO 1), short enzyme donor fragment of β-galactosidase (peptide)
peptide: SLAVVLQRRDWENPGVTQLNRLAAHPPFASWRNSEEA
Question: With B1 as the binder, how does the “complementation activity (β-galactosidase activity after ED + EA incubation) relative to native 90 mer ED 28 (SEQ ID 17), ED 0.0123 nM, 60 min” value read?
Answer: The value was 45%.

B2: 46 mer ED (SEQ ID NO 10) (peptide)
peptide: SLAVVLQRRDWENPGVTQLNKLAAHPPFASWRNSEEARTDCPSQQL
Question: B2 was tested. Which “complementation activity relative to native 90 mer ED 28 (SEQ ID 17), at the same concentration (0.0123 nM)” value did it give?
Answer: Its value is 72%.
